Measurements reported in patent US20020045564A1, “Methods of modulating muscle contraction” (priority 1997, published 2002).

B1: PAK-phosphorylated caldesmon: caldesmon phosphorylated by PAK (protein, UniProt P12957 1-771, looked up)
Caldesmon: MDDFERRRELRRQKREEMRLEAERLSYQRNDDDEEEAARERRRRARQERLRQKEEGDVSGEVTEKSEVNAQNSVAEEETKRSTDDEAALLERLARREERRQKRLQEALERQKEFDPTITDGSLSVPSRREVNNVEENEITGKEEKVETRQGRCEIEETETVTKSYQRNNWRQDGEEEGKKEEKDSEEEKPKEVPTEENQVDVAVEKSTDKEEVVETKTLAVNAENDTNAMLEGEQSITDAADKEKEEAEKEREKLEAEEKERLKAEEEKKAAEEKQKAEEEKKAAEERERAKAEEEKRAAEERERAKAEEERKAAEERERAKAEEERKAAEERAKAEEERKAAEERAKAEEERKAAEERAKAEKERKAAEERERAKAEEEKRAAEEKARLEAEKLKEKKKMEEKKAQEEKAQANLLRKQEEDKEAKVEAKKESLPEKLQPTSKKDQVKDNKDKEKAPKEEMKSVWDRKRGVPEQKAQNGERELTTPKLKSTENAFGRSNLKGAANAEAGSEKLKEKQQEAAVELDELKKRREERRKILEEEEQKKKQEEAERKIREEEEKKRMKEEIERRRAEAAEKRQKVPEDGVSEEKKPFKCFSPKGSSLKIEERAEFLNKSAQKSGMKPAHTTAVVSKIDSRLEQYTSAVVGNKAAKPAKPAASDLPVPAEGVRNIKSMWEKGNVFSSPGGTGTPNKETAGLKVGVSSRINEWLTKTPEGNKSPAPKPSDLRPGDVSGKRNLWEKQSVEKPAASSSKVTATGKKSETNGLRQFEKEP
modifications: phosphorylated by PAK
B2: caldesmon: unphosphorylated smooth muscle caldesmon purified from chicken gizzard (protein, UniProt P12957 1-771, looked up)
Caldesmon: B1 Caldesmon

Assays:
cardiac LC20 = target: T1, cardiac LC20 (Homo sapiens, UniProt P10916); assay: In vitro phosphorylation of cardiac LC20; assay type: biochemical
T1 construct: using isolated cardiac myofibrils and associated proteins; from tissue
T1 sequence (P10916 1-166): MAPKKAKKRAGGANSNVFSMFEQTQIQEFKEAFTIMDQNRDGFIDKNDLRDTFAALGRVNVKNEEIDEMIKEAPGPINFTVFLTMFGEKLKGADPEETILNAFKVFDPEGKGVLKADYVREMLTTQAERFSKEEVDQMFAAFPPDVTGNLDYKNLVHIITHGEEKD
Description: In vitro phosphorylation of intact smooth, skeletal, cardiac, platelet, and Dictyostelium myosin and isolated LC20, caldesmon, and caldesmon fragments, and cardiac and skeletal Tn were carried out at 25° C. in 10 mM Tris, pH 7.0, 50 mM sodium chloride, 1 mM [γ^32P]ATP (5×10^5 cpm per nmol) or at 37° C. in the same buffer except containing 150 mM sodium chloride. Aliquots of the reaction mixture were analyzed for protein phosphorylation using Whatman P81 paper and SDS-gel electrophoresis/autoradiography as previously described (Childs, T. J. et al. 1992. J. Biol. Chem. 267:22853-22859). In the case of cardiac and skeletal Tn, the three Tn subunits (TnI, TnT, and TnC) were separated by reversed phase HPLC. The individual subunits were analyzed for incorporation of ^32P (i.e., phosphorylation by PAK) by SDS-PAGE and autoradiography and direct counting.
Phosphorylated amino acids were identified by thin-layer electrophoresis after partial hydrolysis of the phosphorylated proteins in 6 N hydrochloric acid as previously described (Childs, T. J. et al. 1992. J. Biol. Chem. 267:22853-22859; Mak, A. S. et al. 1991. J. Biol. Chem. 266:19971-19975; Mak, A. S. et al. 1991. J. Biol. Chem. 266:6678-6681). […]

actin-tropomyosin = assay: Actin-tropomyosin binding assay (centrifugation); details: FIG. 5
Description: To quantitate the amount of smooth muscle caldesmon and smooth muscle tropomyosin bound to the skeletal actin thin filament (>95% amino acid homology to smooth muscle actin), centrifugation studies were carried out in binding buffer consisting of 20 mM Tris-HCl pH 7.2, 10 mM KCl, 5 mM MgCl2 and 1 mM DTT. The concentration of actin was 5 nmole/200 μl (˜25 μM) and the mole ratio of actin to tropomyosin was 7:2. Increasing quantities of unphosphorylated or phosphorylated caldesmon were added to the actin-tropomyosin mixture. Protein concentrations were determined by the Lowry method or by absorbance at 280 nm. Samples were spun for 30 min at approximately 95,000 rpm, resulting in the pelleting of over 95% of the actin. The obtained pellets were dissolved in 100 μl of 0.05% aqueous trifluroacetic acid (TFA) and injected on a Zorbax C8 SB300 reversed-phase column (4.6 mm×250 mm) on a Varian HPLC system (Star series). The various proteins were eluted using a 2% B/min linear A/B gradient with a 5 min initial isocratic hold, where solvent A is 0.05% aqueous TFA and solvent B is 0.05% TFA in acetonitrile. The flow rate was 1 ml/min. The peak areas were determined at 210 nm and converted to nanomoles using a standard curve obtained for each protein. […] The experiments were done in triplicate and the standard deviation calculated.

[1] = target: smooth muscle myosin ATPase (Gallus gallus, UniProt P02607+P10587); assay: Actin-tropomyosin activated ATPase activity of smooth muscle subfragment 1 (S1); assay type: biochemical; details: FIG. 6
Description: Reactions consisted of 10 μM actin, 2 μM tropomyosin, 0.5 μM S1, and variable concentrations of unphosphorylated and phosphorylated caldesmon. The buffer contained 40 mM Tris-HCl pH 7.8, 50 mM KCl, 5 mM MgCl2, 1 mM DTT at 37° C. Reactions were performed in a 96 well microtitre plate, triggered by the addition of 4 mM ATP. The phosphate assay was performed according to the method of Chifflet, S. et al. 1988. (Anal. Biochem. 168:1-4). Briefly, reactions were terminated by the addition of an equal volume (100 μL) of reagent which contained 6% (w/v) SDS, 3% (w/v) ascorbic acid, 1M HCl, 0.5% (w/v) ammonium molybdate. The mixture was incubated for 5 minutes prior to the addition of a second reagent which contained 2% sodium citrate, 2% sodium m-arsenite, and 2% acetic acid. Blue colour developed quickly over 5 minutes. Microtitre plates were read at 650 nm on an E-max ELISA plate reader (Molecular Dynamics, Sunnyvale Calif.). Phosphate was determined by comparing experimental values to standard phosphate values obtained through dilution of phosphate-buffered saline (PBS).

Sequence of smooth muscle myosin ATPase (P10587 84-789 limits assumed): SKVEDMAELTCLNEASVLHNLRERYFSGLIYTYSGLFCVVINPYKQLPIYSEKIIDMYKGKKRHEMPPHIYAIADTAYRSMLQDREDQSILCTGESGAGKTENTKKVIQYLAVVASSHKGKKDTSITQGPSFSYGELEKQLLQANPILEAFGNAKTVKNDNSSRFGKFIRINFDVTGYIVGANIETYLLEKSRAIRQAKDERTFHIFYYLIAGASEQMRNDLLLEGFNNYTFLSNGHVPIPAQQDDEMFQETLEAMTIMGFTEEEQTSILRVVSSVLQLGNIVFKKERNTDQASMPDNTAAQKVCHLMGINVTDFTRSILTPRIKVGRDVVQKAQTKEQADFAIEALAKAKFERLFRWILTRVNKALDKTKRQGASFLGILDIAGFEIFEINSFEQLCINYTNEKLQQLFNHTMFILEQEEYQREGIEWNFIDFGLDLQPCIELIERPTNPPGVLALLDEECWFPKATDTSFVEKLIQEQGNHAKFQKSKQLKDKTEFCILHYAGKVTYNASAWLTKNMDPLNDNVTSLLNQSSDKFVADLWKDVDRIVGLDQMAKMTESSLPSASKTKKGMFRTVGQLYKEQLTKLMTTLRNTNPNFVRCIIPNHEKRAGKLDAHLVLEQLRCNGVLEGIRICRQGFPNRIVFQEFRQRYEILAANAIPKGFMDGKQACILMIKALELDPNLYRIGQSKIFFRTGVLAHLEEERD
Sequence of smooth muscle myosin ATPase (P02607 2-151 limits assumed): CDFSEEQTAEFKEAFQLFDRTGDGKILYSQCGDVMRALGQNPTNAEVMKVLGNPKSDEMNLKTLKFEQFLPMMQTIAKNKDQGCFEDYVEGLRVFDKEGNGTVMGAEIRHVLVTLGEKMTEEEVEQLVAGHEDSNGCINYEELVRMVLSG

Molecule | phosphorylation of cardiac LC20 (cardiac LC20) | change in affinity of caldesmon for actin(-tropomyosin), phosphorylated vs unphosphorylated (actin-tropomyosin) | inhibition of smooth muscle myosin ATPase activity [1]
MLCK: myosin light chain kinase purified from chicken gizzard | 0.2 mol phosphate per mol protein |  | 
B1 |  | approximately two-fold reduction | inhibition was clearly released
B2 |  |  | inhibited
